Read-outs that look alike come from different tables or passages of the source.

Data on 2 molecules can be found in publication PMC3542976.

For series [1], the target named is T1, p20 (dsRBD of PKR) (UniProt P19525 1-184). Briefly: SAXS.
Series [2] has as its target PKR K296R full length (UniProt P19525 1-551, K296R). Briefly: EMSA. A general note: In EMSA bound probe runs differently from free probe, usually more slowly.
The target in series [3] is T1, p20 (dsRBD of PKR). The experiment in a line: SAXS. This is another data set of the same source.

T1 sequence (P19525 1-184): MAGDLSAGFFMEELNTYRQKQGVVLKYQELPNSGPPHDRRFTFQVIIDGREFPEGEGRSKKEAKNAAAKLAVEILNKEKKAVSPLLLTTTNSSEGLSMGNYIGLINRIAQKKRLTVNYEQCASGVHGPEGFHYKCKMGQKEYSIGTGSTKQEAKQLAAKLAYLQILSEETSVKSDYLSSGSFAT
Chain of PKR K296R full length (P19525 whole entry K296R): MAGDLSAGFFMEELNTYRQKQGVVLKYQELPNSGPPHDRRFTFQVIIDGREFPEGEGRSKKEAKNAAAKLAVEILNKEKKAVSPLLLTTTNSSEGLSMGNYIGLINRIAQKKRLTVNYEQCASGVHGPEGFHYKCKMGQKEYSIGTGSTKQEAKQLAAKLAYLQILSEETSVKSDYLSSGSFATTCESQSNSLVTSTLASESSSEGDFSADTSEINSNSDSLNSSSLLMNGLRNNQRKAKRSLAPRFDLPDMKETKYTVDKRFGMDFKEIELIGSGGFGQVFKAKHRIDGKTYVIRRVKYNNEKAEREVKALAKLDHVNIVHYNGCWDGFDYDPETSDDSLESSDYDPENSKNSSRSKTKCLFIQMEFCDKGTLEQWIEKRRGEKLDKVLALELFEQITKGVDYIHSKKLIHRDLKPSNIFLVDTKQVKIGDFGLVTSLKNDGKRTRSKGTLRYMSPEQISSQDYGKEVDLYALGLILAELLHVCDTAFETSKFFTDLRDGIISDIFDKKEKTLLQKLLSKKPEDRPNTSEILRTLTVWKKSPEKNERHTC

B1: r(TSA3)/drd(BS) A3-bulged chimeric duplex (mixed)
RNA: GGGAGAGGCAAGUCGUUCGGUCGCGUUCGCAAAUGUCGUCGCGUCUUGUAUGCCACUGUACCC
DNA: GGGTACAGTGGCATACAAGACGCGACGACAGCGAACGCGACCGAACGACTTGCCTCTCCC
modifications: strand 2 is DNA22-RNA16-DNA22 (RNA at 23-38)
Regarding B1, the binding result in series [1] and in series [2] was “binds” throughout.

B2: r(TSA6)/drd(BS) A6-bulged chimeric duplex (mixed)
RNA: GGGAGAGGCAAGUCGUUCGGUCGCGUUCGCAAAAAAUGUCGUCGCGUCUUGUAUGCCACUGUACCC
DNA: GGGTACAGTGGCATACAAGACGCGACGACAGCGAACGCGACCGAACGACTTGCCTCTCCC
modifications: strand 2 is DNA22-RNA16-DNA22 (RNA at 23-38)
As for B2, the binding result in series [2] and in series [3] was “binds” each time.
